Measured values reported in patent US20260250398A1 (ANTLERA THERAPEUTICS, published 2026).

T1: LRP6 (low-density lipoprotein receptor-related protein 6) (UniProt O75581 20-1370, limits assumed)
T1 sequence (looked up): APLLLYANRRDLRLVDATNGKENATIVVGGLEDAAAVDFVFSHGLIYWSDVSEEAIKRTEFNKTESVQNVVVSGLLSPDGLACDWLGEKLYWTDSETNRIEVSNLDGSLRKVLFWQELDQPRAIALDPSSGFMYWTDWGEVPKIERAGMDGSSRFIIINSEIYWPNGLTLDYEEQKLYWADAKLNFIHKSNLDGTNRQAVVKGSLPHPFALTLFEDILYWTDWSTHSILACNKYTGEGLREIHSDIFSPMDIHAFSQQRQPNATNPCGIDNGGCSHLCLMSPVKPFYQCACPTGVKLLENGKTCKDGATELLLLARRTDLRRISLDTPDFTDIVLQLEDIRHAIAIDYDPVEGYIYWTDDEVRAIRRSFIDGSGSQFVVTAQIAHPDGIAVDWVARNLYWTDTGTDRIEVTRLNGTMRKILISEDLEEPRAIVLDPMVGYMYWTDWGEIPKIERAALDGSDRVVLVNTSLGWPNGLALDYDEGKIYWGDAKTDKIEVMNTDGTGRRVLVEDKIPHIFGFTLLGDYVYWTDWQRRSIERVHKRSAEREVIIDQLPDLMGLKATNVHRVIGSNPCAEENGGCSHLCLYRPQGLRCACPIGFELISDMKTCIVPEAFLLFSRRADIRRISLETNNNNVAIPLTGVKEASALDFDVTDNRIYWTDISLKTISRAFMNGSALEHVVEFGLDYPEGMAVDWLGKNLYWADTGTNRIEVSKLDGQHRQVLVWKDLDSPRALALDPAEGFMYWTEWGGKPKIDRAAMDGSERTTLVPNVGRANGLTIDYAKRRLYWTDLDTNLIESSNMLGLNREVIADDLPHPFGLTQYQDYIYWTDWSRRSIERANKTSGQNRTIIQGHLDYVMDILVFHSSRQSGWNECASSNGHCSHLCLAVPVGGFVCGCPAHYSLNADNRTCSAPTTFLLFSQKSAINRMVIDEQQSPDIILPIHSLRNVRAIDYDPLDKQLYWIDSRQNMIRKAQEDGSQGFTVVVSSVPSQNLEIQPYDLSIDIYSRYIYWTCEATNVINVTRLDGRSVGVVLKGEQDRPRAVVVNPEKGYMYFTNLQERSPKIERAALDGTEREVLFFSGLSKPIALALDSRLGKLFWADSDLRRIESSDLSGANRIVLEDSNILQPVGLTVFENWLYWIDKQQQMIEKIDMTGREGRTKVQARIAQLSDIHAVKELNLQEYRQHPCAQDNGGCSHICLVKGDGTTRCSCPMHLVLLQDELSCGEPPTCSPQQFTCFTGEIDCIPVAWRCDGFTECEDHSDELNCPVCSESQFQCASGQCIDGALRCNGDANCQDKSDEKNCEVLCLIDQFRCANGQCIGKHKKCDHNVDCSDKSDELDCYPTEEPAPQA


What follows are binders tested against T1, LRP6 (low-density lipoprotein …) (assay: cell-based or functional assay).

Row | TOPFLASH % Wnt Maxima | Binder
1 | 57 % Wnt Maxima | CT0001 (FZD IgG-LRP Diabody; paratopes 5016; 2539, 2542) (bispecific antibody) heavy 1: EVQLVESGGGLVQPGGSLRLSCAASGFNIHSSSIHWVRQAPGKGLEWVAATYSSFGSITYADSVKGRFTISADTSKNTAYLQMNSLRAEDTAVYYCARYHHPFGYALDYWGQGTLVTVSSASTKGPSVFPLAPSSKSTSGGTAALGCLVKDYFPEPVTVSWNSGALTSGVHTFPAVLQSSGLYSLSSVVTVPSSSLGTQTYICNVNHKPSNTKVDKKVEPKSCDKTHTCPPCPAPELLGGPSVFLFPPKPKDTLMISRTPEVTCVVVDVSHEDPEVKFNWYVDGVEVHNAKTKPREEQYNSTYRVVSVLTVLHQDWLNGKEYKCKVSNKALPAPIEKTISKAKGQPREPQVYTLPPIRELMTSNQVSLSCAVKGFYPSDIAVEWESNGQPENNYKTTPPVLDSDGSFFLVSKLTVDKSRWQQGNVFSCSVMHEALHNHYTQKSLSLSPGKSGSETPGTSESATPESGGGEVQLVESGGGLVQPGGSLRLSCAASGFNISSYYIHWVRQAPGKGLEWVASIYSSYGYTSYADSVKGRFTISADTSKNTAYLQMNSLRAEDTAVYYCARTVRGSKKPYFSGWAMDYWGQGTLVTVSSGGGGSDIQMTQSPSSLSASVGDRVTITCRASQSVSSAVAWYQQKPGKAPKLLIYSASSLYSGVPSRFSGSRSGTDFTLTISSLQPEDFATYYCQQYSWGPFTFGQGTKVEIK heavy 2: EVQLVESGGGLVQPGGSLRLSCAASGFNIHSSSIHWVRQAPGKGLEWVAATYSSFGSITYADSVKGRFTISADTSKNTAYLQMNSLRAEDTAVYYCARYHHPFGYALDYWGQGTLVTVSSASTKGPSVFPLAPSSKSTSGGTAALGCLVKDYFPEPVTVSWNSGALTSGVHTFPAVLQSSGLYSLSSVVTVPSSSLGTQTYICNVNHKPSNTKVDKKVEPKSCDKTHTCPPCPAPELLGGPSVFLFPPKPKDTLMISRTPEVTCVVVDVSHEDPEVKFNWYVDGVEVHNAKTKPREEQYNSTYRVVSVLTVLHQDWLNGKEYKCKVSNKALPAPIEKTISKAKGQPREPMVFDLPPSREEMTKNQVSLWCMVKGFYPSDIAVEWESNGQPENNYKTTPPVLDSDGSFFLYSKLTVDKSRWQQGNVFSCSVMHEALHNHYTQKSLSLSPGKSGSETPGTSESATPESGGGEVQLVESGGGLVQPGGSLRLSCAASGFNISYSSIHWVRQAPGKGLEWVAYISSYYGYTYYADSVKGRFTISADTSKNTAYLQMNSLRAEDTAVYYCARAHYFPWAGAMDYWGQGTLVTVSSGGGGSDIQMTQSPSSLSASVGDRVTITCRASQSVSSAVAWYQQKPGKAPKLLIYSASSLYSGVPSRFSGSRSGTDFTLTISSLQPEDFATYYCQQYYWPITFGQGTKVEIK light: DIQMTQSPSSLSASVGDRVTITCRASQSVSSAVAWYQQKPGKAPKLLIYSASSLYSGVPSRFSGSRSGTDFTLTISSLQPEDFATYYCQQGVYLFTFGQGTKVEIKRTVAAPSVFIFPPSDEQLKSGTASVVCLLNNFYPREAKVQWKVDNALQSGNSQESVTEQDSKDSTYSLSSTLTLSKADYEKHKVYACEVTHQGLSSPVTKSFNRGEC
2 | 63 % Wnt Maxima | CM0011 (FZD Diabody-Fc-LRP Diabody; paratopes 5019; 2539, 2542) (bispecific antibody) chain 1: MNLLLILTFVAAAVAEFEVQLVESGGGLVQPGGSLRLSCAASGFNIGSSSIHWVRQAPGKGLEWVASIYSAFASTSYADSVKGRFTISADTSKNTAYLQMNSLRAEDTAVYYCARYHFPFGFALDYWGQGTLVTVSSGGGGSDIQMTQSPSSLSASVGDRVTITCRASQSVSSAVAWYQQKPGKAPKLLIYSASSLYSGVPSRFSGSRSGTDFTLTISSLQPEDFATYYCQQGVYLFTFGQGTKVEIKLEDKTHTKVEPKSSDKTHNCPPCPAPELLGGPSVFLFPPKPKDTLMISRTPEVTCVVVDVSHEDPEVKFNWYVDGVEVHNAKTKPREEQYNSTYRVVSVLTVLHQDWLNGKEYKCKVSNKALPAPIEKTISKAKGQPREPQVYTLPPIRELMTSNQVSLSCAVKGFYPSDIAVEWESNGQPENNYKTTPPVLDSDGSFFLVSKLTVDKSRWQQGNVFSCSVMHEALHNHYTQKSLSLSPGKSGSETPGTSESATPESGGGEVQLVESGGGLVQPGGSLRLSCAASGFNISSYYIHWVRQAPGKGLEWVASIYSSYGYTSYADSVKGRFTISADTSKNTAYLQMNSLRAEDTAVYYCARTVRGSKKPYFSGWAMDYWGQGTLVTVSSGGGGSDIQMTQSPSSLSASVGDRVTITCRASQSVSSAVAWYQQKPGKAPKLLIYSASSLYSGVPSRFSGSRSGTDFTLTISSLQPEDFATYYCQQYSWGPFTFGQGTKVEIK chain 2: MNLLLILTFVAAAVAEFEVQLVESGGGLVQPGGSLRLSCAASGFNIGSSSIHWVRQAPGKGLEWVASIYSAFASTSYADSVKGRFTISADTSKNTAYLQMNSLRAEDTAVYYCARYHFPFGFALDYWGQGTLVTVSSGGGGSDIQMTQSPSSLSASVGDRVTITCRASQSVSSAVAWYQQKPGKAPKLLIYSASSLYSGVPSRFSGSRSGTDFTLTISSLQPEDFATYYCQQGVYLFTFGQGTKVEIKLEDKTHTKVEPKTSDKTHTCPPCPAPELLGGPSVFLFPPKPKDTLMISRTPEVTCVVVDVSHEDPEVKFNWYVDGVEVHNAKTKPREEQYNSTYRVVSVLTVLHQDWLNGKEYKCKVSNKALPAPIEKTISKAKGQPREPMVFDLPPSREEMTKNQVSLWCMVKGFYPSDIAVEWESNGQPENNYKTTPPVLDSDGSFFLYSKLTVDKSRWQQGNVFSCSVMHEALHNHYTQKSLSLSPGKSGSETPGTSESATPESGGGEVQLVESGGGLVQPGGSLRLSCAASGFNISYSSIHWVRQAPGKGLEWVAYISSYYGYTYYADSVKGRFTISADTSKNTAYLQMNSLRAEDTAVYYCARAHYFPWAGAMDYWGQGTLVTVSSGGGGSDIQMTQSPSSLSASVGDRVTITCRASQSVSSAVAWYQQKPGKAPKLLIYSASSLYSGVPSRFSGSRSGTDFTLTISSLQPEDFATYYCQQYYWPITFGQGTKVEIK
3 | 52 % Wnt Maxima | CM0126 (FZD Diabody-Fc-LRP Diabody; paratopes 5016; 2539, 2542) (bispecific antibody) chain 1: MNLLLILTFVAAAVAEFEVQLVESGGGLVQPGGSLRLSCAASGFNIHSSSIHWVRQAPGKGLEWVAATYSSFGSITYADSVKGRFTISADTSKNTAYLQMNSLRAEDTAVYYCARYHHPFGYALDYWGQGTLVTVSSGGGGSDIQMTQSPSSLSASVGDRVTITCRASQSVSSAVAWYQQKPGKAPKLLIYSASSLYSGVPSRFSGSRSGTDFTLTISSLQPEDFATYYCQQGVYLFTFGQGTKVEIKLEDKTHTKVEPKSSDKTHNCPPCPAPELLGGPSVFLFPPKPKDTLMISRTPEVTCVVVDVSHEDPEVKFNWYVDGVEVHNAKTKPREEQYNSTYRVVSVLTVLHQDWLNGKEYKCKVSNKALPAPIEKTISKAKGQPREPQVYTLPPIRELMTSNQVSLSCAVKGFYPSDIAVEWESNGQPENNYKTTPPVLDSDGSFFLVSKLTVDKSRWQQGNVFSCSVMHEALHNHYTQKSLSLSPGKSGSETPGTSESATPESGGGEVQLVESGGGLVQPGGSLRLSCAASGFNISSYYIHWVRQAPGKGLEWVASIYSSYGYTSYADSVKGRFTISADTSKNTAYLQMNSLRAEDTAVYYCARTVRGSKKPYFSGWAMDYWGQGTLVTVSSGGGGSDIQMTQSPSSLSASVGDRVTITCRASQSVSSAVAWYQQKPGKAPKLLIYSASSLYSGVPSRFSGSRSGTDFTLTISSLQPEDFATYYCQQYSWGPFTFGQGTKVEIK chain 2: MNLLLILTFVAAAVAEFEVQLVESGGGLVQPGGSLRLSCAASGFNIHSSSIHWVRQAPGKGLEWVAATYSSFGSITYADSVKGRFTISADTSKNTAYLQMNSLRAEDTAVYYCARYHHPFGYALDYWGQGTLVTVSSGGGGSDIQMTQSPSSLSASVGDRVTITCRASQSVSSAVAWYQQKPGKAPKLLIYSASSLYSGVPSRFSGSRSGTDFTLTISSLQPEDFATYYCQQGVYLFTFGQGTKVEIKLEDKTHTKVEPKTSDKTHTCPPCPAPELLGGPSVFLFPPKPKDTLMISRTPEVTCVVVDVSHEDPEVKFNWYVDGVEVHNAKTKPREEQYNSTYRVVSVLTVLHQDWLNGKEYKCKVSNKALPAPIEKTISKAKGQPREPMVFDLPPSREEMTKNQVSLWCMVKGFYPSDIAVEWESNGQPENNYKTTPPVLDSDGSFFLYSKLTVDKSRWQQGNVFSCSVMHEALHNHYTQKSLSLSPGKSGSETPGTSESATPESGGGEVQLVESGGGLVQPGGSLRLSCAASGFNISYSSIHWVRQAPGKGLEWVAYISSYYGYTYYADSVKGRFTISADTSKNTAYLQMNSLRAEDTAVYYCARAHYFPWAGAMDYWGQGTLVTVSSGGGGSDIQMTQSPSSLSASVGDRVTITCRASQSVSSAVAWYQQKPGKAPKLLIYSASSLYSGVPSRFSGSRSGTDFTLTISSLQPEDFATYYCQQYYWPITFGQGTKVEIK
